The target of assay [1] is T1, human TL1A extracellular domain with N-terminal HIS and FLAG tag (human, UniProt O95150 72-251).
T1 construct: whole entry named. ~70 kDa fraction purified by gel filtration
T1 sequence: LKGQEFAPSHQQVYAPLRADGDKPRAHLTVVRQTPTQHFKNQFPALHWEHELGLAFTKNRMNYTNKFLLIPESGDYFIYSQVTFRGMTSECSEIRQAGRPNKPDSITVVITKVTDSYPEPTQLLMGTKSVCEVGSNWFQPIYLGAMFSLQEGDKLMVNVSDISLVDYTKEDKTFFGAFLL
The assay can be described thus: SPR run 2; supernatant on Protein A; TL1A 10 ug/mL; timepoint 220. The text has this: (§1) 1.5. Antibody expression and antigen binding as determined by SPR. Using a CM5 sensor chip (GE Healthcare) Protein A (Pierce) was coupled to the chip surface using an amine coupling kit (GE Healthcare). Protein A was coupled on flow cell 1 and 2 (or alternatively 3 and 4) using a BIACORE® T200. […] The amount of supernatant or purified protein (as well as the concentration) injected during the capture stage varied between runs and is specified in the header of the Tables 3-11. At the end of injection of the supernatant or purified antibody the change in response units was measured. This value was reported as Capture Level in Tables 3-11. […] The response units were measured prior to the end of the dissociation phase. […] The sensorgrams were double referenced (flow cell 2 is subtracted from flow cell 1 and a buffer blank). As there were a large number of antibody variants to screen, these were screened across different runs (Tables 3-11). […] A summary of the conditions used in each run is below:
(§2) 2.1. […] In some experiment the antibodies were purified using Protein A chromatography (See 1.4) and purified antibodies were used in BIACORE® (GE Healthcare) experiments.

In assay [2] the target is T1, human TL1A extracellular domain with …. The assay can be described thus: SPR run 2; supernatant on Protein A; TL1A 10 ug/mL; timepoint 44.
Description: as §1, §2

B1: 320-238 (antibody, human IgG1, name in Kabat numbering, V domains shown)
VH: QVQLVQSGAEVKKPGASVKVSCKASGYTFTSYDINWVRQAPGQGLEWMGWLNPNSGNTGYAQKFQGRVTMTADRSTSTAYMELSSLRSEDTAVYYCAREVPETAAFEYWGQGTLVTVSS
VL: QSVLTQPPSVSGAPGQRVTISCTSSSSLIGAGLGVHWYQQLPGTAPKLLIEGYYNRPSGVPDRFSGSKSGTSASLTITGLLPEDEGDYYCQSYDGTLSALFGGGTKLTVLG
notes: human IgG1, lambda
B1: the “TL1A Binding Level (Late)” value in assay [1] came out at 191 RU. Further, the “TL1A Binding Level (Early)” value in assay [2] worked out at 221 RU.

B2: 320-239 (antibody, human IgG1, name in Kabat numbering, V domains shown)
VH: QVQLVQSGAEVKKPGASVKVSCKASGYTFTSYDINWVRQAPGQGLEWMGWLNPNSGNTGYAQKFQGRVTMTADRSTSTAYMELSSLRSEDTAVYYCAREVPETAAFEYWGQGTLVTVSS
VL: QSVLTQPPSVSGAPGQRVTISCTSSSSWIGAGLGVHWYQQLPGTAPKLLIEGYYNRPSGVPDRFSGSKSGTSASLTITGLLPEDEGDYYCQSYDGTLSALFGGGTKLTVLG
notes: human IgG1, lambda
For B2, the “TL1A Binding Level (Late)” value in assay [1] was determined as 163 RU. Also, the “TL1A Binding Level (Early)” value in assay [2] turned out to be 212 RU.

B3: 320-243 (antibody, human IgG1, name in Kabat numbering, V domains shown)
VH: QVQLVQSGAEVKKPGASVKVSCKASGYTFTSYDINWVRQAPGQGLEWMGWLNPNSGNTGYAQKFQGRVTMTADRSTSTAYMELSSLRSEDTAVYYCAREVPETAAFEYWGQGTLVTVSS
VL: QSVLTQPPSVSGAPGQRVTISCTSSSSDQGAGLGVHWYQQLPGTAPKLLIEGYYNRPSGVPDRFSGSKSGTSASLTITGLLPEDEGDYYCQSYDGTLSALFGGGTKLTVLG
notes: human IgG1, lambda
B3: the “TL1A Binding Level (Late)” value in assay [1] was 26 RU. Also, the “TL1A Binding Level (Early)” value in assay [2] amounted to 71 RU.

B4: 320-246 (antibody, human IgG1, name in Kabat numbering, V domains shown)
VH: QVQLVQSGAEVKKPGASVKVSCKASGYTFTSYDINWVRQAPGQGLEWMGWLNPNSGNTGYAQKFQGRVTMTADRSTSTAYMELSSLRSEDTAVYYCAREVPETAAFEYWGQGTLVTVSS
VL: QSVLTQPPSVSGAPGQRVTISCTSSSSDKGAGLGVHWYQQLPGTAPKLLIEGYYNRPSGVPDRFSGSKSGTSASLTITGLLPEDEGDYYCQSYDGTLSALFGGGTKLTVLG
notes: human IgG1, lambda
Regarding B4, the “TL1A Binding Level (Late)” value in assay [1] was 23 RU. In assay [2], the “TL1A Binding Level (Early)” value stood at 32 RU.

B5: 320-242 (antibody, human IgG1, name in Kabat numbering, V domains shown)
VH: QVQLVQSGAEVKKPGASVKVSCKASGYTFTSYDINWVRQAPGQGLEWMGWLNPNSGNTGYAQKFQGRVTMTADRSTSTAYMELSSLRSEDTAVYYCAREVPETAAFEYWGQGTLVTVSS
VL: QSVLTQPPSVSGAPGQRVTISCTSSSSDSGAGLGVHWYQQLPGTAPKLLIEGYYNRPSGVPDRFSGSKSGTSASLTITGLLPEDEGDYYCQSYDGTLSALFGGGTKLTVLG
notes: human IgG1, lambda
For the molecule B5, the “TL1A Binding Level (Late)” value in assay [1] amounted to 49 RU. Moreover, the “TL1A Binding Level (Early)” value in assay [2] was 124 RU.

B6: 320-240 (antibody, human IgG1, name in Kabat numbering, V domains shown)
VH: QVQLVQSGAEVKKPGASVKVSCKASGYTFTSYDINWVRQAPGQGLEWMGWLNPNSGNTGYAQKFQGRVTMTADRSTSTAYMELSSLRSEDTAVYYCAREVPETAAFEYWGQGTLVTVSS
VL: QSVLTQPPSVSGAPGQRVTISCTSSSSYIGAGLGVHWYQQLPGTAPKLLIEGYYNRPSGVPDRFSGSKSGTSASLTITGLLPEDEGDYYCQSYDGTLSALFGGGTKLTVLG
notes: human IgG1, lambda
As for B6, in assay [1], the “TL1A Binding Level (Late)” value is 196 RU. The “TL1A Binding Level (Early)” value in assay [2] came to 230 RU.

B7: 320-247 (antibody, human IgG1, name in Kabat numbering, V domains shown)
VH: QVQLVQSGAEVKKPGASVKVSCKASGYTFTSYDINWVRQAPGQGLEWMGWLNPNSGNTGYAQKFQGRVTMTADRSTSTAYMELSSLRSEDTAVYYCAREVPETAAFEYWGQGTLVTVSS
VL: QSVLTQPPSVSGAPGQRVTISCTSSSSDLGAGLGVHWYQQLPGTAPKLLIEGYYNRPSGVPDRFSGSKSGTSASLTITGLLPEDEGDYYCQSYDGTLSALFGGGTKLTVLG
notes: human IgG1, lambda
On to B7, for which the “TL1A Binding Level (Late)” value in assay [1] turned out to be 162 RU. Also, the “TL1A Binding Level (Early)” value in assay [2] came to 205 RU.

The values above are taken from US20170081400A1 (CEPHALON, published 2017).
